Measured values reported in the Human Domainome abundance scans (Beltran et al. 2025).
± gives the uncertainty stated by the source.

B1: Ankyrin repeat and SOCS box protein 14, residues 532 to 572; numbered along this chain, A6NK59 (parent)
chain: RSLKHLCRLKIRKCMGRLHLRCPVFMSFLPLPNRLKAYVLY

Variants of: B1
Test: abundance fitness (aPCA) (normalised: wild type 0, dead -1); higher = more abundant; growth selection in yeast, the domain comes from the species named
Conditions: Homo sapiens

Variant | abundance fitness
Y38M | -0.454 ± 0.13
K4P | -0.233 ± 0.096
K4V | -0.174 ± 0.063
K10C | -0.193 ± 0.087
K10H | -0.559 ± 0.27
K10A | 0.352 ± 0.049
L18S | -0.735 ± 0.091
L18C | -0.284 ± 0.093
S2V | -0.339 ± 0.066
S2K | -0.053 ± 0.083
S2I | 0.335 ± 0.14
P30F | -0.182 ± 0.071
P30Y | -0.067 ± 0.087
P30L | 0.151 ± 0.048
P30R | 0.485 ± 0.043
P30D | 0.325 ± 0.061
P30A | 0.417 ± 0.042
C7G | -0.291 ± 0.049
C7P | -0.577 ± 0.084
C7A | 0.063 ± 0.048
L6V | -0.183 ± 0.05
L6G | -0.297 ± 0.047
A37G | -0.291 ± 0.05
A37M | -0.207 ± 0.082
L35A | -0.466 ± 0.058
L35S | -0.66 ± 0.091

Variant | abundance fitness
L35V | -0.103 ± 0.048
F25D | 0.197 ± 0.078
R12I | 0.099 ± 0.32
L29M | -0.618 ± 0.21
L29K | -0.299 ± 0.076
L29S | -0.258 ± 0.065
L29P | -0.342 ± 0.06
M15W | 0.132 ± 0.056
M15T | -0.383 ± 0.07
H19D | -0.272 ± 0.12
H19W | -0.053 ± 0.077
H19A | 0.171 ± 0.052
V39L | -0.098 ± 0.087
C22V | 0.064 ± 0.05
C22Y | -0.139 ± 0.12
L20S | -0.093 ± 0.057
L20T | 0.069 ± 0.24
L20A | 0.083 ± 0.051
L20K | 0.101 ± 0.1
C14D | 0.014 ± 0.12
C14V | 0.376 ± 0.057
S27M | -0.892 ± 0.15
S27N | 0.019 ± 0.16
R1C | -0.113 ± 0.076
R1A | -0.414 ± 0.077
R1K | -0.107 ± 0.094

Variant | abundance fitness
L9W | -0.235 ± 0.051
L9R | -0.205 ± 0.048
L9M | 0.076 ± 0.16
N33P | -0.004 ± 0.064
N33C | -0.151 ± 0.14
N33R | 0.044 ± 0.046
N33K | -0.222 ± 0.09
P32W | 0.552 ± 0.049
P32A | 0.08 ± 0.048
P32Q | -0.587 ± 0.091
P32R | -0.452 ± 0.048
V24S | 0.308 ± 0.062
V24D | 0.472 ± 0.091
V24N | 0.316 ± 0.065
V24R | 0.352 ± 0.048
V24P | 0.137 ± 0.075
R21G | -0.061 ± 0.051
R21N | 0.096 ± 0.2
R21P | -0.322 ± 0.059
R21D | -0.143 ± 0.078
R21C | -0.253 ± 0.092
G16K | 0.092 ± 0.089
G16D | 0.084 ± 0.31
P23N | -0.049 ± 0.32
P23D | 0.315 ± 0.057
P23C | 0.28 ± 0.06

Variant | abundance fitness
P23R | 0.357 ± 0.052
P23F | 0.078 ± 0.1
L31W | -0.187 ± 0.049
L31V | -0.086 ± 0.048
L31K | -0.529 ± 0.079
L31M | -0.301 ± 0.11
H5D | -0.293 ± 0.13
Y41V | 0.398 ± 0.13
M26I | -0.038 ± 0.14
M26T | -0.002 ± 0.053
L3P | -0.949 ± 0.13
I11V | -0.17 ± 0.063
I11P | -0.675 ± 0.065
K13I | -0.091 ± 0.09
K13C | -0.192 ± 0.096
K13E | 0.201 ± 0.055
K36G | -0.599 ± 0.073
R34K | -0.166 ± 0.094
R34F | -0.168 ± 0.12
R34W | 0.022 ± 0.054
R17Y | 0.506 ± 0.11
R17I | -0.203 ± 0.42
R17M | 0.079 ± 0.085
R8V | 0.057 ± 0.053
F28R | 0.104 ± 0.051
F28D | -0.056 ± 0.067
